The record followed here is the supplement of paper PMC12042874.

± gives the uncertainty stated by the source.

The nature of this series: amyloid nucleation score (Sup35N fusion, yeast selection) (log enrichment); library NNK3; higher = more nucleation; inactive = no reads after selection. The method in brief: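 Three technical output replicates were used for random libraries. Psi-negative yeast expressing peptides of 20 random codons fused to Sup35N were induced with 100 μM copper sulfate for 24 hours and grown 7 days at 30°C on medium lacking adenine and uracil, and input and output plasmid inserts were Illumina-sequenced, excluding sequences with under 100 input reads. The nucleation score is the DiMSum log enrichment of output over input reads, centred on the mode score of non-aggregating sequences.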
As to YLQLTRQTSYVIIAL, the amyloid nucleation score result is “inactive”.

On to YLICTRPILSLASLVS, for which the amyloid nucleation score result was “inactive”.

LSSLVSFVITQLRLLMKTER: the amyloid nucleation score result was “inactive”.

As to KYNPTMSNYSGLLWKIGVGT, the amyloid nucleation score entry is “inactive”.

Take YCDSCLNDFLVWYF: the amyloid nucleation score result is “inactive”.

In turn, CSISNVFSVVNVSSYSWGLY displayed an amyloid nucleation score of 0.373 ± 0.39.

As to RVVPMVTVGKIRKNLMD, the amyloid nucleation score entry was “inactive”.

On to GHSHCMNSVLHSNMSLNTVI, for which the amyloid nucleation score result is “inactive”.

For AGFRKTMWCIQPVSFLLLKF, the amyloid nucleation score is 1.74 ± 0.1.

On to CFLMCVAVVCRIRNYYWCTI, for which the amyloid nucleation score result is “inactive”.

For DFRRTGLCIREWSSWRIMKL, the amyloid nucleation score result was “inactive”.

Consider ACVRKIIKVGYFYERISIRV, for which the amyloid nucleation score result was “inactive”.

For MLVAGPLGQE, the amyloid nucleation score result was “inactive”.

As for ISSIYREYLLKHGMFRKRRK, the amyloid nucleation score entry is “inactive”.

On to HGFSVTILTRVLTVGNSRRS, for which the amyloid nucleation score entry was “inactive”.

Regarding NKVPVGG, the amyloid nucleation score result is “inactive”.

Turning to SKYPRLSCHRIRNVRLGWTL, the amyloid nucleation score came out at 1.34 ± 0.085.

Substance GPWGSNNMQICTYFQNLFIA showed an amyloid nucleation score of 1.73 ± 0.092.

Take LCHWFL: the amyloid nucleation score entry is “inactive”.

With KIHRAGDYWVMSNR, the amyloid nucleation score entry was “inactive”.

As to ASLRDAPILYDASE, the amyloid nucleation score result is “inactive”.

As for TRGSPRGRNEKSGYTSVMRG, the amyloid nucleation score entry was “inactive”.

Consider NYEARLSG, for which the amyloid nucleation score entry is “inactive”.

On to TKKLKIPYFANFYTRFRHFK, for which the amyloid nucleation score result is “inactive”.

For the substance YGGDSNRIRVRLFKMKTLNL, the amyloid nucleation score result is “inactive”.

Consider SNLNWPWKYPNMWFLLS, for which the amyloid nucleation score result was “inactive”.

Turning to CAQTYPIRMYS, the amyloid nucleation score entry is “inactive”.

With ISRGALYLGMTATMRVQSGF, the amyloid nucleation score result is “inactive”.

Turning to HASSHYT, the amyloid nucleation score result was “inactive”.

Regarding TGVMRYRCLNLFVASICSVP, the amyloid nucleation score entry is “inactive”.

On to RFIDWQVCD, for which the amyloid nucleation score result is “inactive”.

LRRYVARNRRSYFTESLPRA had an amyloid nucleation score of -0.123 ± 1.4.

On to RLGTMVVDLVERARIEGDVF, for which the amyloid nucleation score entry was “inactive”.

In the case of CEGVAHSDMFLRLLLTETGL, the amyloid nucleation score is -0.792 ± 1.8.

For HWHMIMIKCQLEFTKEVIRA, the amyloid nucleation score entry was “inactive”.

On to SGLVCVT, for which the amyloid nucleation score entry was “inactive”.

Substance LRYWPVCLVQIAFDFTVTGV gave an amyloid nucleation score of 1.97 ± 0.062.

On to QFDFVLPVGYVFGDGYVLWV, for which the amyloid nucleation score entry was “inactive”.

VFYMRSETKLFL: the amyloid nucleation score was -0.391 ± 0.8.

Consider RWNMLIDVHLNVYHRQDRWC, for which the amyloid nucleation score turned out to be 0.636 ± 0.23.

Regarding DKEDHLSVFWAV, the amyloid nucleation score entry was “inactive”.

On to QNECLGHQNWLNVVLKVAMM, for which the amyloid nucleation score entry is “inactive”.

As to LFYSTARCEKSRCVMGRMRG, the amyloid nucleation score entry is “inactive”.

On to LRLNLMSILKVEYRCSMITW, for which the amyloid nucleation score result was “inactive”.

Turning to FCYVSCLS, the amyloid nucleation score entry was “inactive”.

As to MDAYRNHFMFTIIKFYSCES, the amyloid nucleation score entry is “inactive”.

LMGVDSLLYRKHSGV: the amyloid nucleation score result is “inactive”.

On to YSAQFITSIGLGQKLFS, for which the amyloid nucleation score entry was “inactive”.

As for SICCKVRTSTYVRLCMLVLP, the amyloid nucleation score result was “inactive”.

With INWGWLPCTRTSTIGSRGRS, the amyloid nucleation score entry is “inactive”.

Take VYSMEPECIW: the amyloid nucleation score entry was “inactive”.

Turning to AVLKILFVRPCYVINMSLKY, the amyloid nucleation score was 0.199 ± 0.64.

As to RMDLEIVLNILHSGMS, the amyloid nucleation score entry is “inactive”.
